# Reference: the nanobody polyreactivity screen of Harvey et al. (2022)
# Assay: yeast display, Sf9 membrane polyspecificity reagent, FACS + sequencing; frameworks hold sequencing errors
# In short: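 A synthetic nanobody library was expressed on Saccharomyces cerevisiae BJ5465 by galactose induction for 36–48 hours. The library was stained for 1 hour at 4 °C with 10% biotinylated, detergent-solubilized Sf9 membrane reagent and enriched with streptavidin microbeads before FACS. Low and high (top ~1%) gates were set on anti-HA fluorescence for expression and streptavidin fluorescence for reagent binding, and each polyreactivity label reflects the gate of origin.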
row,Sequence,polyreactivity (PSR sort gate)
1,QVQLVESGGGLVQAGGSLRLSCAASGFIFGLYDMGWDRQAPGKERELVATISDSGGDTYYSDSVKGRFTISRDNAKNTVYLQMNSMKPEDTAVYYCAAKYVYGRGIRAYDYWVQGTQVTVSS,high polyreactivity
2,QVQLVESGGGLVQAGGSLRLSCAASGFIFGNYAMGWYRQAPGKERELVATITRRGGRTYYADSVKGRFTISRDIAKNTVYLQMTSLKPEDTAVYYCNARPSRWAREGYWGQGTQVTVSS,high polyreactivity
3,QVQLVESGGGLVQAGGSLRLSCAASGFIFGPNAMGWYRQAPGKERELVAAITLSGGSTYYADSVKGRFTISRDNAKNTVYLQMNSLKPEDTAVYYCATTYYHNYLLYGYWGQGTQVTVSS,low polyreactivity
4,QVQLVESGGGLVQAGGSLRLSCAASGFIFGQYAMGWYRQAPGKERELVATINRSGGSTYYADSVKGRFTISRDNAKNTVYLQMNSLKPEDTAVYYCAKGPRISSSLRYSAYWKMNYWGQGTQVTVSS,high polyreactivity
5,QVQLVESGGGLVQAGGSLRLSCAASGFIFGRYAMGWYRQAPGKERELVAAISSGDDTDYADSVKGRFTISRYNAKNTVYLLMNSLIPEDTAVYYCARSRFWSPVNYRRTIEFDSWGQGTQVTVSS,low polyreactivity
6,QVQLVESGGGLVQAGGSLRLSCAASGFIFGRYAMGWYRQAPGKERELVAAITSGGRTYYADSVKGRFTISRDNAKNTVYLQMNSLKPEDTAVYYCAKRVGRYWTAGYYWGQGTQVTVSS,high polyreactivity
7,QVQLVESGGGLVQAGGSLRLSCAASGFIFGRYTMGWYSQAPGKERELVAAISSRGGSTYYADSVKGRFTISRDNAKNTVYLQMNSLKPEDTAVYYCAADEIYGYDYWGQGTQVTVSS,high polyreactivity
8,QVQLVESGGGLVQAGGSLRLSCAASGFIFGSIVMGWYRQAPGKERELVAAISKRGGTTYYADSVKGRFTISRDNAKNPVYLQMNSLKPEDTAVYYCAVEWCFRRNGRMDYWGQGTQVTVSS,high polyreactivity
9,QVQLVESGGGLVQAGGSLRLSCAASGFIFGSYAMGWYRQAPGKERELVAAITRSGGNTYYADSVKVRFTISRDNAKNTVYLQMNSLKPEDTAVYYCAAYSGYWYDYWGQGTQVTVSS,high polyreactivity
10,QVQLVESGGGLVQAGGSLRLSCAASGFIFGTYAMGWYIQAPGKERELVAAISTGATYYADSVKGRFTISRDNAKNTVYLQMNSLKPEDTAVYYCAAPRTYYLRYRWYLYEGDYWGQGTQVTVTS,low polyreactivity
11,QVQLVESGGGLVQAGGSLRLSCAASGFIFGTYAMGWYRQAPGKERELVAAISRSGGSTSYADSVKGRFTISRDNAKNTVYLQMNSLKPEDTAVYYCNKRLLRFPYWGYDYWGQGTQVTVSS,high polyreactivity
12,QVQLVESGGGLVQAGGSLRLSCAASGFIFGTYAMGWYRQAPGKERELVAAISRVGNTSYADSVKGRFTISRDNAKNTVYLQMNSLKPEDTAVYYCAADAPSWYDRQYDYWGQGTQVTVSS,low polyreactivity
13,QVQLVESGGGLVQAGGSLRLSCAASGFIFGVNAMGWYRQAPGKERDLVAAITRNGGSTYYADSVKGRFTISRDNAKNTVYLQMNSLKPEDTAVYYCAKYVRRAPSTFDVDYWGQGTQVTVSS,high polyreactivity
14,QVQLVESGGGLVQAGGSLRLSCAASGFIFGWYGMGWDRQARGKERELVAAITWSGVRTYYADSVKGRFTISRDNAKNTVYLQMNSLKPEDTAVYYCARAGGYVGRGYKDQDGRGDYWGQGTQVTVSS,high polyreactivity
15,QVQLVESGGGLVQAGGSLRLSCAASGFIFGYNALGWYRQAPAKERELVAAITWIGGTTYYADSVKGRFTISRDNAKNTVYLQLNSLKPEDTAVYYCARQRSFGRSSYSHRYDYWGQGNQVTVSS,high polyreactivity
16,QVQLVESGGGLVQAGGSLRLSCAASGFIFGYNAMDWYRQAPGKERELVAAITSGGSTNYADSVKGRFTISRDNAKNTVYLQMNSLKPEDTAVYYCNTVPGDFRSITDDDWGQGTQVTVSS,low polyreactivity
17,QVQLVESGGGLVQAGGSLRLSCAASGFIFGYNAMGWSRQAPGKERELVAAITWSGGSTYYADSVKGRFTISRDIAKNTVYLQMNSLKPEDTAVYYCNWPGEGDYWGQGTQVTVSS,low polyreactivity
18,QVQLVESGGGLVQAGGSLRLSCAASGFIFGYNAMGWYRKAPGTERELVAAITWIGGTTYYADSVKGRFTISRDNAKNTVYLQMNSLKPEDTAVYYCARQRSYGRSSYSYGYDYWGQGTQVTVSS,high polyreactivity
19,QVQLVESGGGLVQAGGSLRLSCAASGFIFGYNAMGWYRQAPGKERELVAAINWSGGRTYYADSVKGRFTISRDNPKNTVYLQMNSLKPEDTAVSYCNADGSRRYNYWGQGTQVTVSS,low polyreactivity
20,QVQLVESGGGLVQAGGSLRLSCAASGFIFGYNAMGWYRQAPGKERELVAAIRAGDGSTYYADSVKGRFTISRDNAKNTVYLQMNSLKPEDTAVYYCAAAWRQSGYRYGYWGQGTQVTVAS,high polyreactivity
21,QVQLVESGGGLVQAGGSLRLSCAASGFIFGYNAMGWYRQAPGKERELVAAITASGGSTYYADSVKGRFTISRDNAKNTVYLQMNSLKPEDTAVYYCATVLRKNGERVNRLYYWGQGTQVTVSS,high polyreactivity
22,QVQLVESGGGLVQAGGSLRLSCAASGFIFGYNAMGWYRQAPGKERELVAAITRGGITYYADSVKGRFTISRDNAKYTVYLQMNSLKPEDTAVYYCASDWSVVYTDYDSWGHGTQVTVSS,low polyreactivity

row,Sequence,polyreactivity (PSR sort gate)
1,QVQLVESGGGLVQAGGSLRLSCAASGFIFGYNAMGWYRQAPGKERELVAAITWSGGSTYYADSVKGRFTISRDNAKNTVYLQMNSLKPEDTAVDYCNWPGEGDYWGQGTQVTVSS,low polyreactivity
2,QVQLVESGGGLVQAGGSLRLSCAASGFIFGYNAMVWYRQAPGKERELVARINSGGNTNYADSVKGRFTISRDNAKNTVYLQMNSLKPDDTAVYYCARDASNRYDYWGQGTLVTVSS,low polyreactivity
3,QVQLVESGGGLVQAGGSLRLSCAASGFIFGYYAMGWYRQAPGKERELVAAITSGGSTYYADSVKGRFTISRDNAKNTVYLQMNSLKPEDTAVYYCAAGWWYYLHMDYWGQGTQVTVSS,high polyreactivity
4,QVQLVESGGGLVQAGGSLRLSCAASGFIFGYYAMGWYRQAPGKERELVAAMSRGGITYYADSVNGRFTISRDNAKNTVYLQMNSLKPEDTAVYYCAAPNRYSVPMYYWGQGTQVTVSS,low polyreactivity
5,QVQLVESGGGLVQAGGSLRLSCAASGFIFGYYAMGWYRQAPGKERELVARITSSGGSTYYADSVKGRFTISRDNAKNTVYLQMNSLKPEDTAVYYCAKSPRAPRYIPYGYWGQGTQVTVSS,high polyreactivity
6,QVQLVESGGGLVQAGGSLRLSCAASGFIFGYYTMGWYRQAPGKERELVAAISSRGGSTYYAYSVKGRFTISRDNAKNTVYLQINSLKPEDTAVYYCAKRSTYTGSWWERGYCGQGTQVTVSS,high polyreactivity
7,QVQLVESGGGLVQAGGSLRLSCAASGFIFHIYAMGWYRQAPGKERELVAVITSGGSTYYADSVKGRFTISRDNAKNTVYLQMNSLKPEDTAVYYCAARYRRSWLEYDYWGQGTQVTVSS,high polyreactivity
8,QVQLVESGGGLVQAGGSLRLSCAASGFIFHKYVMGWYRQAPGKERELVAAISRSGASTYYADSVKGRFTISRDNAKNTVYFQMNSLKPEDTAVYYCAARYRRRVIATRDYWGQGTQVTVSS,high polyreactivity
9,QVQLVESGGGLVQAGGSLRLSCAASGFIFHLYAMGWYRQAPGKERELVAVISGGGSTYYADSVKGRFTISRDNAKNTVYLQMNSLKPEDTAVYYCNVGRYYRYATGGDYWGQGTQVTVSS,high polyreactivity
10,QVQLVESGGGLVQAGGSLRLSCAASGFIFHRYAMGWYRQAPGKERELVAAITGRGSSTYYADSVKGRFTISRDNAKNTVYLQMNSLKPEDTAVYYCNAYRYQVYDTGWFGYWGQGTQVTVSS,high polyreactivity
11,QVQLVESGGGLVQAGGSLRLSCAASGFIFHRYVMGWSRQAPGKERELVAAISSGGSTNYADSVKGRFTISRDNAKNTVYLQMNSLKPEDTAVYYCAADGFYYRNWGRFRYYYWGQGTQVTVSS,low polyreactivity
12,QVQLVESGGGLVQAGGSLRLSCAASGFIFHTYAMGWYRQAPGKERELVAAISGGTSSTYYADSVKGRFTISRDNAKNTVYLQMNSLKPEDTAVYYCAARSRRGGYPRYYYWGQGTQVTVSS,high polyreactivity
13,QVQLVESGGGLVQAGGSLRLSCAASGFIFHVYAMGWYRQAPGKEREFVAGISWRGGRTYYADSVKGRFTISRDNAKNTVYLQLNSLKPEDTAVYYCAALGLNAGGKFDYWGQGTQVTVSS,high polyreactivity
14,QVQLVESGGGLVQAGGSLRLSCAASGFIFIANGMGWNSQAPGKERALVAAITSGGGNTYYADSVKGRFTISRDNAKNTVYLQMNSLKPEDTAVYYCNAPSYGKFDYWGQGTQVTVSS,high polyreactivity
15,QVQLVESGGGLVQAGGSLRLSCAASGFIFIAYVMGWYRQAPGKERELVAAITRSGASTYYADSVKGRFTISRDNAKNTVYLQMNSLKPVDTAVYYCAARGAYSFYGYYYWGQGTQVTVSS,high polyreactivity
16,QVQLVESGGGLVQAGGSLRLSCAASGFIFINYAMGWNRPAPGKERELVAAISSRGGSTYYADSVKGRFTISRDNAKNTVYLQMNSLKPEDTAVYYCNADQSFRIVTFDYWGQGTQVTVSS,high polyreactivity
17,QVQLVESGGGLVQAGGSLRLSCAASGFIFIRNAMGWYRQAPGKERELVAAISSGCRTYYADSVKGRFTISRDNAKNTVYLQMNSLKPEDTAVYYCATRPHRPRGHSVGQYDYWGQGTQVTVSS,high polyreactivity
18,QVQLVESGGGLVQAGGSLRLSCAASGFIFKDNARGWYRQATGKEREFVASITASGGSTTYADSVKGRFTISRDTAKNTVYLQMTSLKPEDTAVYYCAARVGWNKRRYDYWGQGTQVTVSS,low polyreactivity
19,QVQLVESGGGLVQAGGSLRLSCAASGFIFKGNAMGWYRPAPGKERELVAAISSRGGSTYYADSVKGRFTISRDNAKNTVYLQMNSLKPEDTAVYYCATRVYWRNDYWGQGTQVTVSS,high polyreactivity
20,QVQLVESGGGLVQAGGSLRLSCAASGFIFKGYAMGWYRQAPGKERELVAAISSGGSTNYADSVKGRFTISRDNAKNTVYLQMNSLKPEDTAVYYCAAGRYIRHYWYGYWGQGTQVTVSS,high polyreactivity
21,QVQLVESGGGLVQAGGSLRLSCAASGFIFKHYAMGWYRQAPGKERELVAAITISASRTYYADSVKGRFTISRDNAKNTVYLQMNSLKPEDTAVYYCARRLLRGSDWGQGTQVTVSS,high polyreactivity
